Laboratory results as given in the supplement of paper PMC10065799, “High-throughput profiling of sequence recognition by tyrosine kinases and SH2 domains using bacterial peptide display” (eLife, 2023).

Experiments:
AncSZ = assay: phosphorylation enrichment, bacterial display (enrichment ratio); higher = better substrate or ligand; peptides without Tyr show the background
Hck = Hck (UniProt P08631); assay: as above
MERTK = MERTK (UniProt Q12866); assay: as above
EPHB2 = EPHB2 (UniProt P29323); assay: as above
Fyn = Fyn (UniProt P06241); assay: as above
FGFR1 = FGFR1 (UniProt P11362); assay: as above
Fes = Fes (UniProt P07332); assay: as above
Fes, sequence (P07332 whole entry, looked up): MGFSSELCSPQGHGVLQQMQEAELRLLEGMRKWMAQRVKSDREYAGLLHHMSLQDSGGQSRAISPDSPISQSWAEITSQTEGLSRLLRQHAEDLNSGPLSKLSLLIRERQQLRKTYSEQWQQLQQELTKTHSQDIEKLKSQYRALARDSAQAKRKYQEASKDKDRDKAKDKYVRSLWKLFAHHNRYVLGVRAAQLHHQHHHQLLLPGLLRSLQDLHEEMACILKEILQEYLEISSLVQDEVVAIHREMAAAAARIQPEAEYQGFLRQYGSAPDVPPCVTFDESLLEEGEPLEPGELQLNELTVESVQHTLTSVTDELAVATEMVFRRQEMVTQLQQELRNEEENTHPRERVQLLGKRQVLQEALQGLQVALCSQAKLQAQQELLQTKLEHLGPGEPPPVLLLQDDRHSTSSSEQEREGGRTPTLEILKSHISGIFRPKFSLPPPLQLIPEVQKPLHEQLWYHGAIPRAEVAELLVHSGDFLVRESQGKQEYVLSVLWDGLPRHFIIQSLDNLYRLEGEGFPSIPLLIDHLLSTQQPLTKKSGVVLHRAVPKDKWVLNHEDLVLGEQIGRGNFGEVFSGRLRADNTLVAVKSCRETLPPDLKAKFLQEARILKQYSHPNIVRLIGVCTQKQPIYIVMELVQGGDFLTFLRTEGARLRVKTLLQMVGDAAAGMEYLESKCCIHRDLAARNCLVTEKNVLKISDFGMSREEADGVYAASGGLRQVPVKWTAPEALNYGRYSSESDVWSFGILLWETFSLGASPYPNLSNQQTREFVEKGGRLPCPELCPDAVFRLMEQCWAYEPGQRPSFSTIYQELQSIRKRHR

c-Src = assay: as above
Jak2 = Jak2 (UniProt O60674); assay: as above
Jak2, sequence (O60674 whole entry, looked up): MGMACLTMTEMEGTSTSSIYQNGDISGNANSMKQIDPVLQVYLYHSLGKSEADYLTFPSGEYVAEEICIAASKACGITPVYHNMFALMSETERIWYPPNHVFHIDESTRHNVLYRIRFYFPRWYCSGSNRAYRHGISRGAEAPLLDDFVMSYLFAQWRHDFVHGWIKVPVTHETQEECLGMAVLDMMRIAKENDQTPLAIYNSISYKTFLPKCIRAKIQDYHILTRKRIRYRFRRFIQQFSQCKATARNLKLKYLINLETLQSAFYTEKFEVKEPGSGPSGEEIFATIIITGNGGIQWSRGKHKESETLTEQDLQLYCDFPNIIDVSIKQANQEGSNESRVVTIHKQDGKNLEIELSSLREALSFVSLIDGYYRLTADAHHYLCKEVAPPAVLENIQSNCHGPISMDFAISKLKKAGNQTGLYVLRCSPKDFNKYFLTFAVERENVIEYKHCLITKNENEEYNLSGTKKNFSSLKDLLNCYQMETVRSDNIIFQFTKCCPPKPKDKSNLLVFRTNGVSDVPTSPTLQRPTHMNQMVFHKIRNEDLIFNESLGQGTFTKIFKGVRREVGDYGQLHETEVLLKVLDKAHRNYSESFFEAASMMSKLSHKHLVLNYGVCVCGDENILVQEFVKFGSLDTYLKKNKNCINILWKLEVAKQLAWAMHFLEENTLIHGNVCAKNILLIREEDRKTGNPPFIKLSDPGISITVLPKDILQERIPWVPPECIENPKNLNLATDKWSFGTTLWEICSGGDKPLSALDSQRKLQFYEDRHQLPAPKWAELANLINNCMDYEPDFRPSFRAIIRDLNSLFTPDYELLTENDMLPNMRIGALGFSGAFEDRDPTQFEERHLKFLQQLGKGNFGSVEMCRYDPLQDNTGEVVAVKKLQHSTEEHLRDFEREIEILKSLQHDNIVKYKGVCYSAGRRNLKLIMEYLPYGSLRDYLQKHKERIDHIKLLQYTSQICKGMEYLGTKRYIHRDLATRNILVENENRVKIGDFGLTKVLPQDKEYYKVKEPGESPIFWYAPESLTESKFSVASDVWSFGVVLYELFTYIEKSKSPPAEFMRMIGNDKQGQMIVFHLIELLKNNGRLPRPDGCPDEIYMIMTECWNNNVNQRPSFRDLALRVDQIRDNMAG

c-Abl (mouse) = assay: as above
FGFR3 = FGFR3 (UniProt P22607); assay: as above
Fer (mouse) = assay: as above
EPHB1 = EPHB1 (UniProt P54762); assay: as above
EPHB1, sequence (P54762 whole entry, looked up): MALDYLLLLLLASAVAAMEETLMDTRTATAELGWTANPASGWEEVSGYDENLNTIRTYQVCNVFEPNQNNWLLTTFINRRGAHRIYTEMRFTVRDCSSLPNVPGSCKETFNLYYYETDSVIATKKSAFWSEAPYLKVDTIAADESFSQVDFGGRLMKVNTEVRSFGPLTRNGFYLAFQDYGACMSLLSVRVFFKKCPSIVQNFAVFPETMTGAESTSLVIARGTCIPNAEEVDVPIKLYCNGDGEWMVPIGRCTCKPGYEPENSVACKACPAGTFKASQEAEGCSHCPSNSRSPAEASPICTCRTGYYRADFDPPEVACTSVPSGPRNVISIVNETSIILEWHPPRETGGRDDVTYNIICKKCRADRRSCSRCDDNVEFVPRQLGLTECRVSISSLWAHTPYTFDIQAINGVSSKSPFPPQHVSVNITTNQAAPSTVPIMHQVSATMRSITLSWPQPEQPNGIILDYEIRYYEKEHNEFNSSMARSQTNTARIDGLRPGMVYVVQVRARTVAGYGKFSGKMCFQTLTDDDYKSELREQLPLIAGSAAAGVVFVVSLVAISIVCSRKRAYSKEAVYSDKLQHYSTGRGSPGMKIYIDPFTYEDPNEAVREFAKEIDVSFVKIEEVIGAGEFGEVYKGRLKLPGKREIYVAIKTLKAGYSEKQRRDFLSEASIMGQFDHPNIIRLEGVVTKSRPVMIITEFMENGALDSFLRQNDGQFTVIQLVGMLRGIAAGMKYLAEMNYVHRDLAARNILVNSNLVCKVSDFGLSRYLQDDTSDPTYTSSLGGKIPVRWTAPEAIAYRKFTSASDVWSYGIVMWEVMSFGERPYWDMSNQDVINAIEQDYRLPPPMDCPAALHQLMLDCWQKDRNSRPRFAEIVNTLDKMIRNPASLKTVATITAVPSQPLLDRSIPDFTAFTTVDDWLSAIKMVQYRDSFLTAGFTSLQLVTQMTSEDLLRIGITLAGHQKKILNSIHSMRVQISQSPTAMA

SHP2-C SH2 = assay: SH2 binding enrichment of the phosphorylated peptide, bacterial display (enrichment ratio); higher = better substrate or ligand; peptides without Tyr show the background
c-Src SH2 = assay: as above
Grb2 SH2 = Grb2 SH2 (UniProt P62993); assay: as above
Grb2 SH2, sequence (P62993 whole entry, looked up, the tested form may be a part): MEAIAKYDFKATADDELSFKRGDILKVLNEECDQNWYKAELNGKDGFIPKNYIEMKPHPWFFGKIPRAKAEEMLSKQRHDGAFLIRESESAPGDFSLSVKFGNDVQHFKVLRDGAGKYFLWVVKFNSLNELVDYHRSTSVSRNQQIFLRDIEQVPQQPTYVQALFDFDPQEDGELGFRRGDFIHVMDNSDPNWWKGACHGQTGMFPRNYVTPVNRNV
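Throughout, for SH2 binding enrichment of the phosphorylated peptide, bacterial display: peptide library displayed on the E. coli surface as eCPX fusions, selected cells deep-sequenced, score is each peptide's frequency after selection divided by its frequency in the input.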
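Throughout, for phosphorylation enrichment, bacterial display: 11-residue human phosphosite peptides and single-mutation variants displayed on the E. coli surface, counted by deep sequencing, each peptide's frequency after selection divided by its frequency in the unselected input library; frequency after pTyr selection over input frequency; kinase dosed for 20-30% of maximal phosphorylation in three min.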

Hck, sequence (P08631 whole entry, looked up): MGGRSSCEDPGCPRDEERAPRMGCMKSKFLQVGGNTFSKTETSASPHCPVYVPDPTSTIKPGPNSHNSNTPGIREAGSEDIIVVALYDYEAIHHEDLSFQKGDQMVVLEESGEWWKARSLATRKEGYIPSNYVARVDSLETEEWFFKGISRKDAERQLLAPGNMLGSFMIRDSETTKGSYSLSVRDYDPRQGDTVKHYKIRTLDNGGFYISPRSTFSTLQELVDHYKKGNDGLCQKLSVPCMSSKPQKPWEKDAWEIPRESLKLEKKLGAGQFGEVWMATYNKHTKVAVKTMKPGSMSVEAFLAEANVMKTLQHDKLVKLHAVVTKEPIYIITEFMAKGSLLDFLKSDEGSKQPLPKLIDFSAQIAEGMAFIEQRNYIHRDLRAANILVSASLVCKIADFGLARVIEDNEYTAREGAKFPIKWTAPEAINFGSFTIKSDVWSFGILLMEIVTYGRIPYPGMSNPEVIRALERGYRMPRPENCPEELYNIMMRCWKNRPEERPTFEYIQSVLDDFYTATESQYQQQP
MERTK, sequence (Q12866 whole entry, looked up): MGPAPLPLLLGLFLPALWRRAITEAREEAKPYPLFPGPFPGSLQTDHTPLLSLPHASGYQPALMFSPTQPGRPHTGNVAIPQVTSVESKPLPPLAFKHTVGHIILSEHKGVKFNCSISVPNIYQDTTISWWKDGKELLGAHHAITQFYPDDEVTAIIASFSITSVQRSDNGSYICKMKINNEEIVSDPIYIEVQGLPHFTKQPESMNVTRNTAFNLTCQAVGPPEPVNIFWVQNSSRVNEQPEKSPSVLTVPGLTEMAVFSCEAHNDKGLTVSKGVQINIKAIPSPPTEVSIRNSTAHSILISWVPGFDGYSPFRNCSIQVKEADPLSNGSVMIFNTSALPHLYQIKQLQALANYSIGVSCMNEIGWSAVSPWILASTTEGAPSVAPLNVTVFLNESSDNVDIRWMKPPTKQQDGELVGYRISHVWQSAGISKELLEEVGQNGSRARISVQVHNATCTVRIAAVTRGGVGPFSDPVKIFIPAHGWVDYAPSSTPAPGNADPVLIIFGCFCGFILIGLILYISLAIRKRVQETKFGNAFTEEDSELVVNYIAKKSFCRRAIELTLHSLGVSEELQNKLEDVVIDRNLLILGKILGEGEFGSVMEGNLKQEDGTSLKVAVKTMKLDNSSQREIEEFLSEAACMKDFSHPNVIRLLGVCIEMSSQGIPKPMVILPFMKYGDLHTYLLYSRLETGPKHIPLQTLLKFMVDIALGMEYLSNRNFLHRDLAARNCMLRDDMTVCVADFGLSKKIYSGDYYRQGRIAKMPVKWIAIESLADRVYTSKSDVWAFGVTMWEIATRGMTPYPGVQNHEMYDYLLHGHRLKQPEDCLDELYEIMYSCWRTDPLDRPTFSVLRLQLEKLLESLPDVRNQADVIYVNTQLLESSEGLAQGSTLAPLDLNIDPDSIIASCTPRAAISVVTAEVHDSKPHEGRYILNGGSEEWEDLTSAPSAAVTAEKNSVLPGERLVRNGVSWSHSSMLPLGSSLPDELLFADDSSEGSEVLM

Sequence	phosphorylation enrichment (AncSZ)	phosphorylation enrichment (Hck)	phosphorylation enrichment (MERTK)	phosphorylation enrichment (EPHB2)	phosphorylation enrichment (Fyn)	phosphorylation enrichment (FGFR1)	phosphorylation enrichment (Fes)	phosphorylation enrichment (c-Src)	phosphorylation enrichment (Jak2)	phosphorylation enrichment (c-Abl (mouse))	phosphorylation enrichment (FGFR3)	phosphorylation enrichment (Fer (mouse))	phosphorylation enrichment (EPHB1)	SH2 binding enrichment (SHP2-C SH2)	SH2 binding enrichment (c-Src SH2)	SH2 binding enrichment (Grb2 SH2)
YTGDIYSSSNL [LZTR1_Y141_N143S]	0.917	7.13	3.2	1.53	6.08	0.613	0.74	4.97	0.504	1.97	0.626	2.91	1.27	0.697	0.592	1.03
SENAFYLSPHI [COL6A3_Y2827_D2831H]	1.26	0.863	0.696	0.573	0.487	0.653	0.887	0.491	3.25	1.96	0.693	0.775	0.576	0.606	0.461	0.776
FSPPFYHRNCM [HGD_Y334_R330S_YF]	0.931	0.457	0.535	0.545	0.377	0.513	0.89	0.623	0.971	0.767	0.632	0.465	0.483	0.818	0.633	0.981
GGFSRYDEGSG [RECQL5_Y484_D480G]	0.733	0.468	0.435	0.558	0.432	0.473	0.928	0.416	0.729	0.636	0.659	0.483	0.431	0.62	0.459	0.858
YNNYGYGNDGF [HNRNPH3_Y161]	0.789	0.455	0.759	6.45	0.577	0.766	0.924	0.505	0.673	0.547	0.766	0.566	3.61	0.591	1.85	2.52
RQSHNYLGGFA [SYK_Y47_R45H]	0.686	0.599	0.414	0.537	0.464	0.501	0.65	0.394	0.523	0.817	0.558	0.387	0.427	1.13	0.433	0.901
MKGDYYCYLAE [YWHAG_Y131_R132C]	3	1.48	5.47	5.89	2.16	11.4	1.5	2.49	5.78	1.85	9.01	1.07	5.59	0.779	1.36	0.789
SRDDYYETIAM [NPY1R_Y347_D346Y]	1.33	1.18	0.467	1.53	0.798	8.35	1.01	0.656	0.808	0.634	6.01	4.75	2.19	0.431	3.29	0.589
EDAHHYLCKEV [JAK2_Y382_A377E]	0.799	0.439	0.411	0.493	0.542	0.588	0.857	0.366	0.632	0.657	0.778	0.441	0.656	0.781	0.603	1.08
FHLLPYTVRAM [PARS2_Y93_YF]	0.8	0.501	0.438	0.633	0.446	0.564	0.971	0.711	0.691	0.546	0.551	0.514	0.581	1.57	1.34	1.11
INVTIYGKTFR [EFHC1_Y177_I174V]	1.18	0.609	0.644	0.588	0.547	0.539	1.29	0.641	1.1	0.868	0.756	0.625	0.631	0.581	0.572	0.76
KLSFSYGWALQ [ALDOB_Y302_R304W]	1.52	0.509	0.559	0.764	0.503	0.676	1.8	0.585	1.72	1.19	0.936	0.591	0.844	0.67	0.558	0.921
EREYKYGAHNY [OAT_Y50]	0.516	0.333	0.397	0.376	0.445	0.348	0.558	0.394	0.5	0.506	0.43	0.35	0.354	0.783	0.623	0.927
REGAKYVSHCA [ASS1_Y113_G117C]	0.776	0.489	0.504	0.506	0.822	0.643	0.86	0.516	0.652	0.825	0.445	0.633	0.618	0.723	0.676	1.04
LNPDGYEKAFE [CPXM2_Y427_YF]	1.15	0.586	0.483	0.988	0.576	0.769	1.49	0.738	0.995	1.05	0.704	0.557	0.667	0.77	3.95	0.868
KKHIPHREHKS [CSNK1G2_Y206_Y206H]	2.89	1.72	1.42	1.71	1.01	1.97	4.05	1.53	5.87	4.03	4.9	2.81	2.61	1.87	1.8	2.15
